Experiment [1] has as its target human immunoglobulin G drug separated from human plasma (human). In words: SPR, Biacore 3000, human IgG immobilized on CM5, peptide as analyte, 25 C, pH 7.4, 1:1 model. (Surface plasmon resonance follows binding to a sensor surface in real time, without labels.)
The target is the same in experiment [2]. In words: SPR, Biacore 3000, human IgG immobilized; reference C-G29A/S33E.1d.

For orientation: koff means the rate constant with which the complex falls apart. As usually defined, the kon is the second-order rate constant of association. Higher therefore signals fast association. In experiment [1], “C-G29A/S33E/K7E/A46E.1d (designed binder)” came in with a Ka of 3.9e+07 M⁻¹, a koff of 0.00709 s⁻¹ and a kon of 276000 M⁻¹ s⁻¹.
“C-G29A/S33E/K7E/H18D/V40D/A46D/Q55E.1d (designed binder)”: in experiment [2], the affinity constant KA relative to C-G29A/S33E.1d was found to be 0.1 fold. In experiment [1], the Ka was 5.7e+06 M⁻¹, the koff is 0.00519 s⁻¹ and the kon was 29000 M⁻¹ s⁻¹.
